Experimental data published in patent WO2015109212A1 (dated 2015).

Experiments:
[1] = target: T1, mouse IL-2 (Peprotech #212-12) (mouse, UniProt P04351 21-169); test: told in Example 10; method not named there (SPR in Example 4)
T1 construct: Bought
T1 sequence (looked up): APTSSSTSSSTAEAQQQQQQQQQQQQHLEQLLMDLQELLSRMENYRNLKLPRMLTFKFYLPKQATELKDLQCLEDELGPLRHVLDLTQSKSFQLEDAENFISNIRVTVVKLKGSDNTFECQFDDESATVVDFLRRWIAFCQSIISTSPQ

[2] = target: T2, Human IL-2 (Humanzyme, HumanKine IL-2) (human, UniProt P60568 21-153); test: SPR (Biacore T200), antibody captured, human IL-2 injected
T2 construct: Bought; also called hIL-2
T2 sequence (P60568 21-153 limits assumed): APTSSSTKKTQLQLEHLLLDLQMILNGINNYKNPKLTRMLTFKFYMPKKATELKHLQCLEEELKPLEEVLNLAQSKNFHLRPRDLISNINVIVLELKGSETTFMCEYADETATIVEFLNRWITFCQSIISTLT

B1: 16B2 (antibody, IgG1, V domains shown)
VH: QVQLVQSGAEVKKPGASVKVSCKASGYTFTSYGISWVRQAPGQGLEWMGWISAYNGNTNYAQKLQGRVTMTTDTSTSTAYMELRSLRSDDTAVYYCAREGAIYYDSSGYYFPFDYWGQGTLVTVSS
VL: SYELTQPPSVSVSPGQTARITCSGDALPRKFAYWYQQKSGQAPVMVIYGDSKRPPGIPERFSGSSSGTMATLTITGAQVEDEADYYCYSTDSGGDVSVFGGGTKLTVL
notes: also called mAb 16B2
- binding result [1]: binds
- binding result [2]: binds

B2: 24E7 (antibody, IgG1, V domains shown)
VH: QVQLVQSGAEVKKPGESLKISCKGSGYSFTSYWIGWVRQMPGKGLEWMGIIYPGDSDTRYSPSFQGQVTISADKSISTAYLQWSSLKASDTAMYYCARETLAAVGSNYYYYGMDVWGQGTTVTVSS
VL: SYELTQPPSVSVSPGQTARITCSGDALPRKYAYWYQQKSGQAPVLVIYEDSKRPSGIPERFSGSSSGTMATLTISGAQVEDEADYYCYSTDRSGNFWVFGGGTKVTVL
notes: also called mAb 24E7
- binding result [1]: binds
- binding result [2]: binds
